This is an account of results in patent US20040006009A1.

The target of the test is MASP (MBL-associated serine proteases) purified from an MBL deficient individual. Kind of test: cell-based or functional assay.

For “recombinant human mannan binding lectin (MBL) (from UniProt P11226 21-248)”, the C4-activation compared to the reference N105-11A (EC50 = 100%); PE0407 5 mg/ml with 1 mM CaCl2, T = 2 months at +4° C. turned out to be 92%; the C4-activation compared to the reference N105-11A (EC50 = 100%); PE0407 5 mg/ml with 1 mM CaCl2, T = 2 months at +37° C. amounted to 94%; the C4-activation compared to the reference N105-11A (EC50 = 100%); PE0407 5 mg/ml with 1 mM CaCl2, T = 2 months at -20° C. was determined as 91%; the C4-activation compared to the reference N105-11A (EC50 = 100%); control 5 mg/ml without calcium, T = 2 months at 37° C. turned out to be 19%. Further, the C4-activation, EC50% relative to a MBL standard; PE0305 10 mg/ml, T = 0 months (% relative to MBL standard) stood at 94; the C4-activation, EC50% relative to a MBL standard; PE0305 10 mg/ml, T = 2½ months at +4° C. (% relative to MBL standard) amounted to 78; the C4-activation, EC50% relative to a MBL standard; PE0305 10 mg/ml, T = 2½ months at +37° C. (% relative to MBL standard) came to 36; the C4-activation, EC50% relative to a MBL standard; PE0305 10 mg/ml, T = 2½ months at -20° C. (% relative to MBL standard) came to 81. Besides, the C4-activation, EC50% relative to a MBL standard; PE0305 10 mg/ml, T = 5 months at +4° C. (% relative to MBL standard) was found to be 80.3; the C4-activation, EC50% relative to a MBL standard; PE0305 10 mg/ml, T = 5 months at +37° C. (% relative to MBL standard) came to 14.3; the C4-activation, EC50% relative to a MBL standard; PE0305 10 mg/ml, T = 5 months at -20° C. (% relative to MBL standard) came to 81.7; the C4 activation assay, EC50 relative to reference (100%); PE0238 1 mg/ml, 12 months at +4 degree (% of reference) is 105. This substance showed a C4 activation assay, EC50 relative to reference (100%); PE0238 1 mg/ml, 12 months at -20 degree (% of reference) of 104.
